The results in this text go back to US20150141335A1, “THERAPEUTIC USES OF FIBROBLAST GROWTH FACTOR 21 PROTEINS” (Eli Lilly and Company, published 2015).

The target of one assay is human βKlotho (human, UniProt Q86Z14). As to the kind of experiment: cell-based or functional assay.
For a further assay, the target named is T1, wild type mouse βKlotho (mouse, UniProt Q99N32).
T1 sequence: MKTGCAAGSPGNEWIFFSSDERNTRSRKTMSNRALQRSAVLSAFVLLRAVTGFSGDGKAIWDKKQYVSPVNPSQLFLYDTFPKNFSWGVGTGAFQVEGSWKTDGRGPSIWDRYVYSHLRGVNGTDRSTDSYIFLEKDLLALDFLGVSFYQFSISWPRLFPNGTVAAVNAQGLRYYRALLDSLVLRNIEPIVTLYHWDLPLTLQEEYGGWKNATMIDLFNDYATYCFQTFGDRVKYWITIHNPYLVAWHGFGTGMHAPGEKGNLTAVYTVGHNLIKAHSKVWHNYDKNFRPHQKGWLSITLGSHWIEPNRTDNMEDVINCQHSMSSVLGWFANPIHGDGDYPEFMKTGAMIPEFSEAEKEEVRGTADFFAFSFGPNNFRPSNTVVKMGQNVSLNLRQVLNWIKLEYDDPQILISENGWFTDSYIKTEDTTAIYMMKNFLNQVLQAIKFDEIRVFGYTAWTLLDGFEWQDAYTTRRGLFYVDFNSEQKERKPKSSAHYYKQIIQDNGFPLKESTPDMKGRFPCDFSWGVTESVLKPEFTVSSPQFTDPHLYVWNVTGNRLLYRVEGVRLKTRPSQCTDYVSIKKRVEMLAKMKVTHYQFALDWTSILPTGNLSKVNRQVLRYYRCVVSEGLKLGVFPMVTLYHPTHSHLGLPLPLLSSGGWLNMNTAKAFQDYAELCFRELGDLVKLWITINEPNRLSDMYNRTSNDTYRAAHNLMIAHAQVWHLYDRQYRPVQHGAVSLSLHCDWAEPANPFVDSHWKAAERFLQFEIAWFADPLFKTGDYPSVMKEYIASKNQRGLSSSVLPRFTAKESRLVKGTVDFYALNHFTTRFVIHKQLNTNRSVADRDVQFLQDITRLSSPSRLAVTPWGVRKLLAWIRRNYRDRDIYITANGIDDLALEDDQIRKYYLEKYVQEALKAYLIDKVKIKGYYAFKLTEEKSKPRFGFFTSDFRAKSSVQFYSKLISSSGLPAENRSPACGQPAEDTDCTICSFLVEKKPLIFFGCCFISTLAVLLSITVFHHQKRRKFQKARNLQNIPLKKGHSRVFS
As to the kind of experiment: cell-based or functional assay.

B1: FGF21 protein of SEQ ID NO: 1 (ligand)
chain: HPIPDSSPLLQFGGQVRQRYLYTDDAQQTECHLEIREDGTVGCAADQSPESLLQLKALKPGVIQILGVKTSRFLCQRPDGALYGSLHFDPEACSFREDLLEDGYNVYQSEAHGLPLHLPGDKSPHRKPAPRGPARFLPLPGLPPALPEPPGILAPQPPDVGSSDPLRLVEPSQLLSPSFLG
As to B1, the “SRE driven luciferase in 293-βKlotho-SRE luc cells, in vitro potency (EC50)” value in the assay with human βKlotho came out at 0.25 nM. Besides, the “glucose uptake (2-deoxy-D-(14C) glucose) in 3T3-L1-βKlotho fibroblasts, in vitro potency (EC50)” value with wild type mouse βKlotho was found to be 0.026 nM.
